In publication PMC3724652:

Biological target: rat GluA2igQ with a His8/Myc tag between residues 22 and 23 (rat)
Assay: AFM imaging of receptor-antibody complexes; receptors isolated by immunoaffinity chromatography from the total cellular pool, incubated with subunit- or tag-specific antibodies, adsorbed to mica at 0.04 nM, imaged in air in tapping mode; volumes of decorated particles and angles between two bound antibodies

Substance “rat GluA2igQ with a His8/Myc tag between residues 22 and 23 (receptor)” has a stoichiometry N of 4.
